Measurements published in the nanobody polyreactivity screen of Harvey et al. (2022).

Experiment: yeast display, Sf9 membrane polyspecificity reagent, FACS + sequencing; frameworks hold sequencing errors
How it was run: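 In a synthetic yeast display library (Saccharomyces cerevisiae BJ5465), nanobody expression was induced with galactose for 36–48 hours. FACS gates were set low and high (top ~1%) using anti-HA fluorescence for expression and streptavidin fluorescence for binding of the Sf9 membrane reagent. Each polyreactivity label is drawn from the gate of origin.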

Sequence	polyreactivity (PSR sort gate)
QVQLVESGGGLVQAGGSLRLSCAASGRIFRGYAMGWYRQAPGKERELVARITSGGRTYYADSVKGRFTISRDNAKNTVYLQMNSLKPEDTAVYYCATVGRGYDERHNYWGQGTQVTVSS	high polyreactivity
QVQLVESGGGLVQAGGSLRLSCAASGRIFRGYLMGWYRQAPGKERELVAVITSGGRTYYADSVKGRFTISRDNAKNTVYLQMNSPKPEDTAVYYCATYPRYKPYYYWGQGTQVTVSS	low polyreactivity
QVQLVESGGGLVQAGGSLRLSCAASGRIFRGYTMGWYRTAPGKERELVAAISRSTGSTNYADSVKGRFTISRDNAKNTVYLQMNSLKPEDTAVYYCAAGPVDYGDWYYDVWFDYWGQGTQVTVSS	high polyreactivity
QVQLVESGGGLVQAGGSLRLSCAASGRIFRKYAMGWYRQAPGKERELVAAISVGGGSTRYADSEKGRFTISRDYAKYTVYLQMNSLKPEYTAVYYCAADWAYYVASYLYYTFDYWGQGTQVTVSS	low polyreactivity
QVQLVESGGGLVQAGGSLRLSCAASGRIFRKYAMGWYRQAPGTERELVATITLRGGSTYYADSVKGRFTISRDNGKNTVYLQMNSLKPEDTAVYYCATDITPAISVEYDYWGQGTQVTVSS	high polyreactivity
QVQLVESGGGLVQAGGSLRLSCAASGRIFRKYDMGWYRPAPGKERELVAAISGTGITYYADSVKGRFTISRDNAKNTVYLQMNSLKPEDTAVYYCARGSKPRAWSWAYPSATSIYDYWGQGTQVTVSS	low polyreactivity
QVQLVESGGGLVQAGGSLRLSCAASGRIFRLYAMGWYRQAPGKEREFVATITWIGGRTYYADSVTGRFTISRDNAKNTVYLQMNSLKPEDTAVYYCAADPGYTYEYWGQGTQVTVSS	low polyreactivity
QVQLVESGGGLVQAGGSLRLSCAASGRIFRLYAMGWYRQAPGKERELVATITSGGTYYADSVKGRFTISRDNAKNTVYLQMNSLKPEDTAVYYCAADVYPGYVGSEEYDYWGQGTQETVSS	low polyreactivity
QVQLVESGGGLVQAGGSLRLSCAASGRIFRLYAMGWYRQAPGKERELVATITSGGTYYADSVKGRFTISRDNAKNTVYLQMNSLKPEDTAVYYCTARRRLRYDYWGQGTQVTVSS	low polyreactivity
QVQLVESGGGLVQAGGSLRLSCAASGRIFRLYVMGWYRQAPGKERELVAAITRGGGTYYADSVKGRFTISRDNAKNTVYLQMNSLKPEDTAVYYCAVGTYTIYSGTLYDYKYYWGQGTQVTVSS	low polyreactivity
QVQLVESGGGLVQAGGSLRLSCAASGRIFRNYAMGWYRQAPGKERELVAAISYTTGSTYYADSVKGRFTISRDNAKNTVYLQMNSLKPEDTAVYYCATTDWYFKFYYWGQGTQVTVSS	high polyreactivity
QVQLVESGGGLVQAGGSLRLSCAASGRIFRPYAMGWYRQAPGKERELVASISWRGSSTYYADSVKGRFTISRDNAKNTVYLQMNSLKPEDTAVYYCAARPYTLAFYRYGYWGQGTQVTVSS	high polyreactivity
QVQLVESGGGLVQAGGSLRLSCAASGRIFRQNAMGWYRQAPGKERELVAAIDWNGTSTYADSVKGRFTISRDNAKNTVYLQMNSLKPEDTAVYYCNASESKPTFEYDYWGQGTQVTVSS	low polyreactivity
QVQLVESGGGLVQAGGSLRLSCAASGRIFRQYAMGWYRQAPGKEREFVAGISTTGGSTYYADSVKGRFTISRDNAKNTVYLQMNSLKPEDTAVYYCAVRINWSRWYHYYTYNYWGQGTQVTVSS	high polyreactivity
QVQLVESGGGLVQAGGSLRLSCAASGRIFRRNVMGWYRQAPGKERELLAAIRGTGSTTYADSVKGRFTISRDNAKNTVYLQMNSLKPEDTAVYYCNAYKGQTGGGGRYGYWGQGTQVTVSS	high polyreactivity
QVQLVESGGGLVQAGGSLRLSCAASGRIFRRYAMGWYRQAPGKEREFVAAISYGGGSTYYADSVKGRFTISRDNAKNTVYLQMNSLKPEDTAVYYCNADEVVWGYNYWGQGTQVTVSS	low polyreactivity
QVQLVESGGGLVQAGGSLRLSCAASGRIFRRYAMGWYRQAPGKERELVAAISSGGSTNYADSVKGRFTLSRDNAKNTVYLQMNSLKPEDTAVYYCAARRTATTSRAYYYWGQGNQVTVSS	high polyreactivity
QVQLVESGGGLVQAGGSLRLSCAASGRIFRRYAMGWYRQAPGKERELVAAISSGGSTYYADSVKGRFTISRDNAKKTVYLQMNSLKPEDTAVYYCNAKVGAYLNYGYWGQGTQVTVSS	low polyreactivity
QVQLVESGGGLVQAGGSLRLSCAASGRIFRRYAMGWYRQAPGKERELVAAISSGGSTYYADSVKGRFTISRDNAKNTVYLQMNSLKPEDTAVYYCNAIVGAYLNYGYWGQGTQVTVSS	low polyreactivity
QVQLVESGGGLVQAGGSLRLSCAASGRIFRRYAMGWYRQAPGKERELVAAITSGSSTNYADSVKGRFTISRDNAKNTVYLQMNSLKPEDTAVYYCNAKLRGYYYSRYNYWGQGTQVTVSS	high polyreactivity
QVQLVESGGGLVQAGGSLRLSCAASGRIFRRYAMGWYRQAPGKERELVASISSGGSTNYADSVKGRFTISRDNAKNTVYLQMNSLKPEDTAVYYCNVYYGYFRSRYGYWGQGTQVTVSS	high polyreactivity
QVQLVESGGGLVQAGGSLRLSCAASGRIFRSNAMGWYRQAPGKERELVAAINNRDTSTYADSVKGRFTISRDNAKNTVYLQMNSLKPEDTAVYYCAARYQYYSTYGVTLDYWGQGTQVTVSS	low polyreactivity

Sequence	polyreactivity (PSR sort gate)
QVQLVESGGGLVQAGGSLRLSCAASGRIFRSNAMGWYRQAPRKERELVAVITTAGSTNYADSVKGRFTISRDNAKNTVYLQMNSLKQEDTAVYYCATENGTRKRRYDYWGQGTQVTVSS	low polyreactivity
QVQLVESGGGLVQAGGSLRLSCAASGRIFRSNAMGWYSQAPGKERELVAAITLRGGSTFYADSVKGRFTISRDNAKNTVYLQMNSLKPEDTAVYYCAARSYWSRSIWSPYDYWGQGTQVTVSS	high polyreactivity
QVQLVESGGGLVQAGGSLRLSCAASGRIFRSNGMGWCRQAPGKERELVAVITPRSGTTSYADSVKGRFTISRDNAKNTVYLQRNSLKPEDTAVYYCAADSDWYPSPYDYWGQGTQVTVSS	high polyreactivity
QVQLVESGGGLVQAGGSLRLSCAASGRIFRSYAMGWYRQAPGKERELVAAITWGGGRTYYADSVKGRFTISRDNAKNTVYLQMNSLKPEDTAVYYCNTLAYPYYRGSKYDYWGQGTQVTVSS	high polyreactivity
QVQLVESGGGLVQAGGSLRLSCAASGRIFRSYAMGWYRQAPGKERELVAAITWSGGSTYYADSVKGRFTISRDNAKNTVYLQMDSLKPEDTAVYYCARVVTKKYSHTGYEYWGQGTQVTVSS	high polyreactivity
QVQLVESGGGLVQAGGSLRLSCAASGRIFRSYAMGWYRQAPGKERELVADISISGGRTYYADSVKGRFTISRDNAKNTVYLQMNSLKPEDTAVYYCAARTYDRNRQLRRQWYDYWGQGTQVTVSS	high polyreactivity
QVQLVESGGGLVQAGGSLRLSCAASGRIFRSYVMGWYRQAPGKERELVAVISKNGGTTYYADSVKGRFTISRDNAKNTVYLQMNSLKPEDTAVYYCAADFRYRSQPGWGARRNGYYWGQGTQVTVSS	high polyreactivity
QVQLVESGGGLVQAGGSLRLSCAASGRIFRTYAMGWYRQAPGKERELVAAISYSGGSTFYADSVKGRFTISRDNAKNTVYLQMNSLKPEDTAVYYCAADSRAKRYYWGQGTQVTVSS	high polyreactivity
QVQLVESGGGLVQAGGSLRLSCAASGRIFRVNAMGRYRQAPGKERELVAAITRSGGSTYYADSVKGRFTISRDNAKNTVYLQRNSLKPEDTAVYYCNADPRLRQTRDYWGQGTQVTVSS	high polyreactivity
QVQLVESGGGLVQAGGSLRLSCAASGRIFRVNTMGWSRQAPGKERELVAAIRSSGTRPYYADSVKGRFTISRDHAKNTVYLQMNSLIPEDTAVYYCAAEHYWWYVFPSLWGEDDYWGQGTQVTVSS	high polyreactivity
QVQLVESGGGLVQAGGSLRLSCAASGRIFRVYAMGWYRQEPGKERELVAGISFRGASTYYADSVKGRFTISRDNAKNTVYLQMNSLKPEDTAVYYCAAALPVQYRDMYSWGQGTQVTVSS	high polyreactivity
QVQLVESGGGLVQAGGSLRLSCAASGRIFRVYAMGWYSQAPGKERELVASISSGGSTNYADSVKGRFTISRDNANNTVYLQMNSLKPEDTAVYYCAADRSGSFYKLDYWGQGTHVTVSS	low polyreactivity
QVQLVESGGGLVQAGGSLRLSCAASGRIFRWNAMGWYRQAPGKERELVAVISSGGSTNYADSVKGRFTISRDNAKNTVYLQMNSLKPEDTAVYYCAKGLIRYSHLDYWGQGTQVTVSS	low polyreactivity
QVQLVESGGGLVQAGGSLRLSCAASGRIFRWYAMGWYRQAPGKERELVAAITRSGSTTYYADSVKGRFTISRDNAKNAVYLQMNSLKPEDTAVSYSAAGYRGGYGWSVRMDYWGQGTQVTVSS	high polyreactivity
QVQLVESGGGLVQAGGSLRLSCAASGRIFRWYAMGWYRQAPGKERELVARITSGSSTYYADSVKGRFTISRDNAKNTVYLQMHSLKPEDTAVYYCATRTLQPGYTYPRYYWGQGTQVTVSS	high polyreactivity
QVQLVESGGGLVQAGGSLRLSCAASGRIFRYKAMGGYRQAPGKEREFVAAISSSGGSTFYADSVKGRFTISRDNAKNTVYLQMNSLIPEDTAAYYCAADDAGFWYYYYGRYVTFDYWGQGTQVTVSS	low polyreactivity
QVQLVESGGGLVQAGGSLRLSCAASGRIFRYNAMGWYRQAPGKERELVAAIRFSGGSTYYADSVKGRFTISRDNAKNTVYLQMNSLKPEYSAVYYCAKVYFRVQSGMDYWGQGTQVTVSS	low polyreactivity
QVQLVESGGGLVQAGGSLRLSCAASGRIFRYNAMGWYRQAPGKERELVAAISGSGDRMYYADSVKGRFTISRDNAKNTVYFHMNSLKPEDTAVYYCAADVVWRQYGSWFYYWGQGTQVTVSS	high polyreactivity
QVQLVESGGGLVQAGGSLRLSCAASGRIFRYNAMGWYRQAPGKERELVAAISRSGGSTYYADSVKGRFTISRDNAKNTVYLQINSLKPEDTAVYYCAVGSPYGGRAPWVRGGDYWGQGTQVTVSS	high polyreactivity
QVQLVESGGGLVQAGGSLRLSCAASGRIFRYNAMGWYRQAPGKERELVAAITWDGGSTYYADSVKGRFTISRDNAKNTVYLQMNSLKPEDTAVYYCNAVTRSYYSYYYWGQGTQVTVSS	high polyreactivity
QVQLVESGGGLVQAGGSLRLSCAASGRIFRYNAMGWYRQAPGKERELVASINQRGGSTYYADSVKGRFTISRDNAKNTVYLQMNSLKPEDTAVYYCAKRFNSGYYYWGQGTQVTVSS	high polyreactivity
